Where a chain is given by its changes, count along the chain named. Numbers in names are those of the source.
T1: human TNR rCd4-His-FBG (rat; human, UniProt P05540 209-391; Q92752 1128-1358, limits assumed)
T1 construct: domain: domains 3 and 4;domain: FBG; also called Hu TNR; hTNR; not shown: 6His tag
T1 sequence (chain (part 1 of 2), looked up): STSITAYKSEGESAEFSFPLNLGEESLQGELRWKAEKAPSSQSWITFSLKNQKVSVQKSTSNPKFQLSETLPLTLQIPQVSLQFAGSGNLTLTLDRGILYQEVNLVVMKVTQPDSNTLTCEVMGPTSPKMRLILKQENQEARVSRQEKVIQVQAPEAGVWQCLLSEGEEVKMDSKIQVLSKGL
T1 sequence (chain (part 2 of 2), looked up): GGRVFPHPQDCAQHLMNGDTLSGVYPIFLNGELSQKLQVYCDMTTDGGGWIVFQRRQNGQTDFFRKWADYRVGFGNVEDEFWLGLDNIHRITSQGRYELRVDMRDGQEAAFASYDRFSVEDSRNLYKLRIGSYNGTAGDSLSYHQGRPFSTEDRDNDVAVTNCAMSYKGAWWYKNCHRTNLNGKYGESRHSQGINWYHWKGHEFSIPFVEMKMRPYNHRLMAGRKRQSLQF

T2: mouse TNC rCd4-His-FBG (rat; mouse, UniProt P05540 209-391; Q80YX1 1883-2110, limits assumed)
T2 construct: domain: domains 3 and 4;domain: FBG; Biotinylated in the capture ELISA; also called Mu TNC; mTNC; not shown: 6His tag
T2 sequence (chain (part 1 of 2), looked up): T1 sequence (chain (part 1 of 2), looked up)
T2 sequence (chain (part 2 of 2), looked up): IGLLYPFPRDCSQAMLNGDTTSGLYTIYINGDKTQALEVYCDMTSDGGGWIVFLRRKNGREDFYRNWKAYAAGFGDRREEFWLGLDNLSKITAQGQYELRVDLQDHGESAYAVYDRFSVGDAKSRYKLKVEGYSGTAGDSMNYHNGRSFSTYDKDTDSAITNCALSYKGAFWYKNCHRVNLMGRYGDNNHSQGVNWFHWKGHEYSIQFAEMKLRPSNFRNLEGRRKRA

T3: human TNC rCd4-His-FBG (rat; human, UniProt P05540 209-391; P24821 1974-2201, limits assumed)
T3 construct: domain: domains 3 and 4;domain: FBG; C-terminal FBG fusion made in HEK293F cells; biotinylated in the ELISA and HTRF assays; also called Hu TNC; hTNC; not shown: 6His tag
T3 sequence (chain (part 1 of 2), looked up): T1 sequence (chain (part 1 of 2), looked up)
T3 sequence (chain (part 2 of 2), looked up): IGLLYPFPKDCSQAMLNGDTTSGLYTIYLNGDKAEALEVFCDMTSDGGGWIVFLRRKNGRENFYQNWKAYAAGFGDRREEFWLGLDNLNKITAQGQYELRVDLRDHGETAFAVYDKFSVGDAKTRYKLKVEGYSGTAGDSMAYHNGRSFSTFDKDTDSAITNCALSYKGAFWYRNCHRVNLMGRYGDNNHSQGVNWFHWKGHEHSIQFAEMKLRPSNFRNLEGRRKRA

B1: IgG4 165_13_C3 (antibody, V domains shown)
VH: QVQLVESGGGLVQPGRSLRLSCAASGFTFDDYAMHWVRQAPGKGLEWVSGISGSGGSTYYADSVKGRFTISRDNAKNSLYLQMNSLRAEDTALYYCAKSYQSDEDAFDIWGQGTMVTVSS
VL: DIQMTQSPASLPTPVGDRVTITCRASQYIQGFLNWYQQKPGKAPKLLIYDASNLETGVPSRFSGSGSGTDFTLTISSLQPEDFATYYCQQSYSTPQTFGQGTKVDIKR
notes: Human IgG4 with hinge modification S241P; also called MAb C3; C3 Mab
B2: 160_01_A4 IgG4 (antibody, V domains shown)
VH: EVRLVQSGAEVKKPGASVKVSCKVSGYTLTELSMHWVRQAPGKGLEWMGGFDPEDGETIYAQKFQGRVTMTEDTSTDTAYMELSSLRSEDTAVYYCATAQKETLGNAIWGQGTLVTVSS
VL: B1 VL with P14S, K45R, D50A, N53T, E55Q, T56D, S67Y, Q96W, D105E
B3: IgG4 165_13_C3* (antibody, V domains shown)
VH: B1 VH
VL: B1 VL with A9S, P12S, T13A, P14S
notes: Hinge-modified IgG4 (S241P); neither is tied by name to C3* as tested; also called NSCT-141

Legend:
human TNR rCd4-His-FBG [1] = target: T1, human TNR rCd4-His-FBG; test: SPR, 37 C, purified IgG4 captured on anti-human Fc
Method: (§1) Detailed kinetic parameters were evaluated for the 9 prioritised IgG4 antibodies. Binding characteristics were determined for interaction with human, […] TNC rCD4-His-FBG, and human TNR rCD4-His-FBG. Kinetic assays followed essentially the same protocols as for the off-rate determinations described above, with some modifications as follows. To improve the accuracy of kinetic parameter determination, anti-human Fc IgG was immobilised at lower levels (2229 RU), resulting in a corresponding reduction in the amount of anti-FBG IgG4 captured. Purified anti-FBG IgG4 was diluted to a concentration of 3.5 nM in PBS, pH 7.4, 0.05% Tween-20 and injected into FC2 at a flow rate of 10 μl/min, 60 s contact time. […] Antigens were prepared by doubling dilution in PBS, pH 7.4, 0.05% Tween-20 (highest concentration 100 nM except mouse rCD4-His-FBG which was 7 nM). Assays were performed at 37° C. (30 μl/min, 120 s contact time; mouse rCD4-His-FBGFBG 10 μl/min, 60 s contact time), with both the flow cell and injection chamber equilibrated to this temperature. As before, kinetic parameters were determined by reference cell subtraction and fitting the sensogram experimental data assuming a 1:1 interaction using BIAevaluation software (GE, BR-1005-97).

mouse TNC rCd4-His-FBG [2] = target: T2, mouse TNC rCd4-His-FBG; test: SPR BIAcore T200, 37 C, IgG4 captured on anti-human Fc, rCd4-His-FBG injected, 1:1 fit
Method: (§2) For the kinetic assay ˜1,500-1,900 response units (RU) of anti-human Fc IgG (GE, BR-1008-39) was immobilised in all flow-cells (FC1-4) on a Series S CM5 sensor chip (BR-1005-30) using EDC/NHS cross-linking chemistry according to the amine coupling kit protocol (GE, BR-1000-50). […] Antibody capture levels ranged typically from 70 RU (for TNR interactions) to 90 RU (for TNC interactions).
(§3) A 1:1 dilution series of antigen in HBS-P+ (30 nM of human and mouse TNC rCd4-His-FBG and 480 nM of human TNR rCd4-His-FBG) was injected with a flow-path via the reference flow cell (FC1 and FC3, respectively) and the antibody capture flow cell (FC2 and FC4, respectively) with a flow rate of 30 μl/min. The association and dissociation phases were measured over a 3.5 and 30 min time period, respectively, for human and mouse TNC rCd4-His-FBG, and 2 and 8 min time period for human TNR rCd4-His-FBG. For interaction analysis with human and mouse TNC rCD4-His-FBG regeneration of free capture antibody surfaces after each antigen injection was done by injection of 3 M MgCl 2 for 60 s and for each sample injection a fresh NSCT antibody was captured. Carry over of antigen was prohibited by an extra needle wash step with 50% DMSO before every injection. Runs were performed at the more physiologically relevant temperature of 37° C.
(§4) Kinetic parameters were determined by reference cell subtraction and fitting the sensorgram experimental data to a 1:1 interaction model using the BIAcore T200 Evaluation software version 2.0.

human TNC rCd4-His-FBG [3] = target: T3, human TNC rCd4-His-FBG; test: as above
Method: as §2, §3, §4

human TNR rCd4-His-FBG [4] = target: T1, human TNR rCd4-His-FBG; test: as above
Method: as §2, §3, §4

mouse TNC rCd4-His-FBG [5] = target: T2, mouse TNC rCd4-His-FBG; test: SPR BIAcore T200, 37 C, IgG4 captured on anti-human Fc, rCd4-His-FBG injected, 1:1 fit; relative to theoretical Rmax
Method: as §2, §3, §4

human TNC rCd4-His-FBG [6] = target: T3, human TNC rCd4-His-FBG; test: as above
Method: as §2, §3, §4

human TNR rCd4-His-FBG [7] = target: T1, human TNR rCd4-His-FBG; test: as above
Method: as §2, §3, §4

human TNC rCd4-His-FBG [8] = target: T3, human TNC rCd4-His-FBG; test: SPR, 37 C, purified IgG4 captured on anti-human Fc
Method: as §1

Row | Binder | fold lower affinity than to human TNC FBG (human TNR rCd4-His-FBG [1]) [fold] | Kd (mouse TNC rCd4-His-FBG [2]) [nM] | koff (mouse TNC rCd4-His-FBG [2]) [s⁻¹] | kon (mouse TNC rCd4-His-FBG [2]) [M⁻¹ s⁻¹] | Kd (human TNC rCd4-His-FBG [3]) [nM] | koff (human TNC rCd4-His-FBG [3]) [s⁻¹] | kon (human TNC rCd4-His-FBG [3]) [M⁻¹ s⁻¹] | Kd (human TNR rCd4-His-FBG [4]) [nM] | koff (human TNR rCd4-His-FBG [4]) [s⁻¹] | kon (human TNR rCd4-His-FBG [4]) [M⁻¹ s⁻¹] | SA, surface activity (mouse TNC rCd4-His-FBG [5]) [%] | SA, surface activity (human TNC rCd4-His-FBG [6]) [%] | SA, surface activity (human TNR rCd4-His-FBG [7]) [%] | Kd (human TNC rCd4-His-FBG [8]) [nM]
1 | B1 | > 70 | 0.433 | 0.004 | 9.27e+06 | 1.24 | 0.0042 | 3.4e+06 | 52.7 | 0.059 | 1.13e+06 | 303 | 298 | 184 | –
2 | B2 | > 70 | – | – | – | – | – | – | – | – | – | – | – | – | < 1
3 | B3 | – | 0.67 | 0.0042 | 6.28e+06 | 0.443 | 0.0041 | 9.35e+06 | 53.1 | 0.058 | 1.11e+06 | 304 | 297 | 233 | –
